From patent publication US6893829B2, “Human leukocyte 12-lipoxygenase and its role in the pathogenesis of disease states” (City of Hope, priority 1992, dated 2005)

Legend:
[1] = tested on: VEGF protein in MCF-7 cells; assay: VEGF protein expression in breast cancer cells (immunoblot); format: cell-based, human; details: MCF-7, 24 hours
Procedure: FIG. 8 illustrates the dose-dependent effect of platelet-derived growth factor (PDGF) on vascular endothelial growth factor (VEGF) protein (42 kD) expression in MCF-7 breast cancer cells. Nearly confluent MCF-7 cells were serum starved for 24 hours by placing in DME medium+0.4% FCS and 0.2% BSA. This medium was then freshly replaced and the cells incubated for another 24 hours with PDGF. At the end of the incubation, the cell monolayers were washed with ice-cold PBS, scraped into PBS and pelleted by centrifugation. The cell pellets were then lysed and equal amounts of protein (50 μg) subjected to electrophoresis and immunoblotting to detect VEGF using a specific antibody from Santa Cruz Biotechnology. Detection was by a chemiluminiscent technique.
FIG. 9 illustrates the effect of epidermal growth factor (EGF) and the 12-lipoxygenase product 12-HETE on VEGF protein expression in the MCF-7 breast cancer cell line MCF-7. MCF-7 cells were treated with EGF and 12-HETE for 24 hours and VEGF protein identified as described in the legend to FIG. 8.

[2] = tested on: 12-LO activity in MCF-7 cells; assay: 12-HETE formation in MCF-7 cells; details: four hours, basal 257±10 pg/10^6 cells
[3] = tested on: leukocyte-type 12-LO in MCF-7 cells; assay: 12-LO protein and mRNA expression in MCF-7 cells; details: EGF 50 ng/ml, 24 hours

B1: EGF: Epidermal Growth Factor (protein, UniProt P01133 23-1207, looked up)
Pro-epidermal growth factor: PQHWSCPEGTLAGNGNSTCVGPAPFLIFSHGNSIFRIDTEGTNYEQLVVDAGVSVIMDFHYNEKRIYWVDLERQLLQRVFLNGSRQERVCNIEKNVSGMAINWINEEVIWSNQQEGIITVTDMKGNNSHILLSALKYPANVAVDPVERFIFWSSEVAGSLYRADLDGVGVKALLETSEKITAVSLDVLDKRLFWIQYNREGSNSLICSCDYDGGSVHISKHPTQHNLFAMSLFGDRIFYSTWKMKTIWIANKHTGKDMVRINLHSSFVPLGELKVVHPLAQPKAEDDTWEPEQKLCKLRKGNCSSTVCGQDLQSHLCMCAEGYALSRDRKYCEDVNECAFWNHGCTLGCKNTPGSYYCTCPVGFVLLPDGKRCHQLVSCPRNVSECSHDCVLTSEGPLCFCPEGSVLERDGKTCSGCSSPDNGGCSQLCVPLSPVSWECDCFPGYDLQLDEKSCAASGPQPFLLFANSQDIRHMHFDGTDYGTLLSQQMGMVYALDHDPVENKIYFAHTALKWIERANMDGSQRERLIEEGVDVPEGLAVDWIGRRFYWTDRGKSLIGRSDLNGKRSKIITKENISQPRGIAVHPMAKRLFWTDTGINPRIESSSLQGLGRLVIASSDLIWPSGITIDFLTDKLYWCDAKQSVIEMANLDGSKRRRLTQNDVGHPFAVAVFEDYVWFSDWAMPSVMRVNKRTGKDRVRLQGSMLKPSSLVVVHPLAKPGADPCLYQNGGCEHICKKRLGTAWCSCREGFMKASDGKTCLALDGHQLLAGGEVDLKNQVTPLDILSKTRVSEDNITESQHMLVAEIMVSDQDDCAPVGCSMYARCISEGEDATCQCLKGFAGDGKLCSDIDECEMGVPVCPPASSKCINTEGGYVCRCSEGYQGDGIHCLDIDECQLGEHSCGENASCTNTEGGYTCMCAGRLSEPGLICPDSTPPPHLREDDHHYSVRNSDSECPLSHDGYCLHDGVCMYIEALDKYACNCVVGYIGERCQYRDLKWWELRHAGHGQQQKVIVVAVCVVVLVMLLLLSLWGAHYYRTQKLLSKNPKNPYEESSRDVRSRRPADTEDGMSSCPQPWFVVIKEHQDLKNGGQPVAGEDGQAADGSMQPTSWRQEPQLCGMGTEQGCWIPVSSDKGSCPQVMERSFHMPSYGTQTLEGGVEKPHSLLSANPLWQQRALDPPHQMELTQ
modifications: Pro-epidermal growth factor
VEGF protein expression [1]: induced | formation of 12-HETE ([2]; serum-starved MCF-7, EGF 50 ng/ml): 462 ± 15 pg | formation of 12-HETE ([2]; serum-starved MCF-7, EGF 100 ng/ml): 593 ± 46 pg | levels of 12-LO protein (72 kD) and 12-LO mRNA [3]: marked increase
